Assay results from publication PMC5506376.

Tested on: CC(=O)N[C@H]1[C@@H](OP(=O)(O)OP(=O)(O)OC[C@H]2O[C@@H](n3ccc(=O)[nH]c3=O)[C@H](O)[C@@H]2O)O[C@H](C)[C@@H](NC(C)=O)[C@@H]1O
Experiment: purified protein
Details: Mg2+

## PglC (Campylobacter jejuni subsp. jejuni NCTC 11168 = ATCC 700819)
  Km: 7.2 ± 1.1 µM
